B1: Azoarcus group I ribozyme (parent)
chain: GUGCCUUGCGCCGGGAAACCACGCAAGGGAUGGUGUCAAAUUCGGCGAAACCUAAGCGCCCGCCCGGGCGUAUGGCAACGCCGAGCCAAGCUUCGGCGCCUGCGCCGAUGAAGGUGUAGAGACUAGACGGCACCCACCUAAGGCAAACGCUAUGGUGAAGGCAUAGUCCAGGGAGUGGCGAAAGUCACACAAACCGG

Variants of: B1
Assay: reverse-splicing fitness (ratio to wild type); higher = more active; in vitro selection; Mg2+ level not given
Outline: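 An in vitro group I ribozyme library with randomized positions was T7-transcribed and gel-purified. In triplicate, 10 pmol RNA in EPPS pH 7.5 was reacted with 50 pmoles of a 30-nt RNA substrate for 1 h at 37 °C across several added MgCl2 levels (1–48 mM), then stopped with EDTA. Products were reverse transcribed from a substrate-complementary primer, PCR-amplified and sequenced (HiSeq 4000). Fitness is a variant's read proportion after selection over that before, normalised to wild type.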

| Variant | reverse-splicing fitness |
| --- | --- |
| GUGCCUUGCGCCGGGAAACCACGCAAGGGAUGGUGUCAAAUUCGGCGAAACCUAAGCGCCCGCCCGGGCGUAUGGCAACGCUGAGCCAAGCUUCGGCGCCUGCGCCGAUGGAGGUGUAGUGACUAGACGGCACCCACCUAAGGCUAACGCUAUGGUGAAGGCAUAGUCGAGGGAGGGGCGAAAGUCACACAAACCGG | 0.00135 |
| GUGCCUUGCGCCGGGAAACCACGCAAGGGAUGGUGUCAAAUUCGGCGAAACCUAAGCGCCCGCCCGGGCGUAUGGCAACGCUGAGCCAAGCUUCGGCGCCUGCGCCGAUGGAGGUGUAGUGACUAGACGGCACCCACCUAAGGCUAACGCUAUGGUGAAGGCAUAGUCGAGGGAGAGGCGAAAGUCACACAAACCGG | 0.00205 |
| GUGCCUUGCGCCGGGAAACCACGCAAGGGAUGGUGUCAAAUUCGGCGAAACCUAAGCGCCCGCCCGGGCGUAUGGCAACGCUGAGCCAAGCUUCGGCGCCUGCGCCGAUGGAGGUGUAGUGACUAGACGGCACCCACCUAAGGCUAACGCUAUGGUGAAGGCAUAGUCGAGGGAGCGGCGAAAGUCACACAAACCGG | 0.00255 |
| GUGCCUUGCGCCGGGAAACCACGCAAGGGAUGGUGUCAAAUUCGGCGAAACCUAAGCGCCCGCCCGGGCGUAUGGCAACGCUGAGCCAAGCUUCGGCGCCUGCGCCGAUGGAGGUGUAGUGACUAGACGGCACCCACCUAAGGCUAACGCUAUGGUGAAGGCAUAGUCCAGGGAGGGGCGAAAGUCACACAAACCGG | 0.004 |
| GUGCCUUGCGCCGGGAAACCACGCAAGGGAUGGUGUCAAAUUCGGCGAAACCUAAGCGCCCGCCCGGGCGUAUGGCAACGCUGAGCCAAGCUUCGGCGCCUGCGCCGAUGGAGGUGUAGUGACUAGACGGCACCCACCUAAGGCUAACGCUAUGGUGAAGGCAUAGUCCAGGGAGCGGCGAAAGUCACACAAACCGG | 0.0196 |
| GUGCCUUGCGCCGGGAAACCACGCAAGGGAUGGUGUCAAAUUCGGCGAAACCUAAGCGCCCGCCCGGGCGUAUGGCAACGCUGAGCCAAGCUUCGGCGCCUGCGCCGAUGGAGGUGUAGUGACUAGACGGCACCCACCUAAGGCUAACGCUAUGGUGAAGGCAUAGUCCAGGGAGAGGCGAAAGUCACACAAACCGG | 0.00945 |
| GUGCCUUGCGCCGGGAAACCACGCAAGGGAUGGUGUCAAAUUCGGCGAAACCUAAGCGCCCGCCCGGGCGUAUGGCAACGCUGAGCCAAGCUUCGGCGCCUGCGCCGAUGGAGGUGUAGUGACUAGACGGCACCCACCUAAGGCUAACGCUAUGGUGAAGGCAUAGUCGAGGGAGUGGCGAAAGUCACACAAACCGG | 0.00313 |
| GUGCCUUGCGCCGGGAAACCACGCAAGGGAUGGUGUCAAAUUCGGCGAAACCUAAGCGCCCGCCCGGGCGUAUGGCAACGCUGAGCCAAGCUUCGGCGCCUGCGCCGAUGGAGGUGUAGUGACUAGACGGCACCCACCUAAGGCUAACGCUAUGGUGAAGGCAUAGUCUAGGGAGUGGCGAAAGUCACACAAACCGG | 0.00467 |
| GUGCCUUGCGCCGGGAAACCACGCAAGGGAUGGUGUCAAAUUCGGCGAAACCUAAGCGCCCGCCCGGGCGUAUGGCAACGCUGAGCCAAGCUUCGGCGCCUGCGCCGAUGGAGGUGUAGUGACUAGACGGCACCCACCUAAGGCUAACGCUAUGGUGAAGGCAUAGUCAAGGGAGUGGCGAAAGUCACACAAACCGG | 0.00249 |
| GUGCCUUGCGCCGGGAAACCACGCAAGGGAUGGUGUCAAAUUCGGCGAAACCUAAGCGCCCGCCCGGGCGUAUGGCAACGCUGAGCCAAGCUUCGGCGCCUGCGCCGAUGGAGGUGUAGUGACUAGACGGCACCCACCUAAGGCUAACGUUAUGGUGAAGGCAUAGUCCAGGGAGGGGCGAAAGUCACACAAACCGG | 0.00372 |
| GUGCCUUGCGCCGGGAAACCACGCAAGGGAUGGUGUCAAAUUCGGCGAAACCUAAGCGCCCGCCCGGGCGUAUGGCAACGCUGAGCCAAGCUUCGGCGCCUGCGCCGAUGGAGGUGUAGUGACUAGACGGCACCCACCUAAGGCUAACGUUAUGGUGAAGGCAUAGUCCAGGGAGAGGCGAAAGUCACACAAACCGG | 0.00763 |
| GUGCCUUGCGCCGGGAAACCACGCAAGGGAUGGUGUCAAAUUCGGCGAAACCUAAGCGCCCGCCCGGGCGUAUGGCAACGCUGAGCCAAGCUUCGGCGCCUGCGCCGAUGGAGGUGUAGUGACUAGACGGCACCCACCUAAGGCUAACGUUAUGGUGAAGGCAUAGUCCAGGGAGCGGCGAAAGUCACACAAACCGG | 0.013 |
| GUGCCUUGCGCCGGGAAACCACGCAAGGGAUGGUGUCAAAUUCGGCGAAACCUAAGCGCCCGCCCGGGCGUAUGGCAACGCUGAGCCAAGCUUCGGCGCCUGCGCCGAUGGAGGUGUAGUGACUAGACGGCACCCACCUAAGGCUAACGCUAUGGUGAAGGCAUAGUCUAGGGAGGGGCGAAAGUCACACAAACCGG | 0.0016 |
| GUGCCUUGCGCCGGGAAACCACGCAAGGGAUGGUGUCAAAUUCGGCGAAACCUAAGCGCCCGCCCGGGCGUAUGGCAACGCUGAGCCAAGCUUCGGCGCCUGCGCCGAUGGAGGUGUAGUGACUAGACGGCACCCACCUAAGGCUAACGCUAUGGUGAAGGCAUAGUCUAGGGAGCGGCGAAAGUCACACAAACCGG | 0.00254 |
| GUGCCUUGCGCCGGGAAACCACGCAAGGGAUGGUGUCAAAUUCGGCGAAACCUAAGCGCCCGCCCGGGCGUAUGGCAACGCUGAGCCAAGCUUCGGCGCCUGCGCCGAUGGAGGUGUAGUGACUAGACGGCACCCACCUAAGGCUAACGCUAUGGUGAAGGCAUAGUCUAGGGAGAGGCGAAAGUCACACAAACCGG | 0.00252 |
